{"source": "paper PMC12669751", "about": "“Immunodominant antibodies against hemagglutinin in ferrets following infection with 2018 to 2019 influenza vaccine strains” (NPJ Vaccines, 2025)", "binders": {"B1": {"name": "monoclonal antibody FluA-20 (antibody, V domains shown)", "VH": "QVQLEESGPGLVKPSETLSLTCSVSGVSVTSDIYYWTWIRQPPGKGLEWIGYIFYNGDTNYNPSLKSRVTMSIDTSKNEFSLRLTSVTAADTAVYFCARGTEDLGYCSSGSCPNHWGQGTLVTVSS", "VL": "DIVMTQSPSSLSASIGDRVTITCRPSQNIRSFLNWFQHKPGKAPKLLIYAASNLQSGVPSRFSGSGSGTEFTLTIRSLQPEDFATYYCQQSYNTPPTFGQGTKVEIK", "notes": "also called FluA-20 mAb; pan-H3 anti-HA1 mAb; copies: 2 + 2"}}, "molecular_target": "TX/50 egg-version rHA1 (Influenza A virus A/Texas/50/2012 …, UniProt R4L1D1, strain)", "experiment": "BLI", "settings": "one partner purified", "data": [{"binder": "B1", "values": [{"measurement": "binding result", "value": "binds"}]}]}
